Experimental data taken from patent US20230212613.

Columns and labels:
[1] = test system: TRAC TALEN right monomer (artificial); experiment: cell_activity; conditions: as TALEN pair with left monomer; primary human T cells, plateau by 72 h
[2] = test system: TRAC TALEN left monomer (artificial); experiment: cell_activity; conditions: as TALEN pair with right monomer; primary human T cells, plateau by 72 h

## GGTACAGGTAAGAGCAA (double strand) [TRAC TALEN right half-site]
[1]
  activity: 90 % indels

## TTCCTCCTACTCACCAT (double strand) [TRAC TALEN left half-site]
[2]
  activity: 90 % indels
